Experimental data from patent publication US20090092595A1, “Suppression of sPLA2-integrin binding for treating an inflammatory condition” (REGENTS OF THE UNIVERSITY OF CALIFORNIA, priority 2007, published 2009).

Legend:
[1] = system: mutant α4 subunit (Tyr-189 and Gly-190 to Ala); assay: Adhesion of CHO cells expressing wt or mutant α4 to sPLA2-IIA; format: cell-based
Method: (§1) FIG. 5. sPLA2-IIA binding to integrin α4β1. a) Cells expressing recombinant α4β1 adhered to wt sPLA2-IIA better than cells expressing other recombinant integrins. We used transfected K562 cells clonally express different human integrins for adhesion assays. Low background adhesion to BSA was subtracted. […] Wells of 96-well microtiter plate were coated with VCAM-1 and FN-GST, and incubated with U937 cells (1×10^4 cells/plate) in the presence of the increasing concentrations of sPLA2-IIA for 1 h at 37° C. Adherent cells were quantified using endogenous phosphatase after gently rinsing the well to remove unbound cells. Data is shown as means+/−SEM of triplicate experiments. *P=0.0101 and **P<0.0001 by t-test. c) Amino acid sequence in the α4 subunit that is critical for VCAM-1 and CS-1 binding is also critical for sPLA2-IIA binding. CHO cells that clonally express wt or mutant α4 (Irie, A. et al., Embo J, 14(22): 5550-5556 (1995)) were used for adhesion assays. Data is shown as means+/−SEM of triplicate experiments. Similar results were obtained using K562 cells expressing α4 mutants (not shown).
(§2) Other methods We performed docking simulation of interaction between sPLA2-IIA and integrin αvβ3 using the AutoDock3 as previously described (Mori, S. et al., J Biol Chem, in press (2008)). […]

[2] = biological target: T1, α4β1 binding to VCAM-1 (Homo sapiens, UniProt P05556+P13612); assay: Adhesion of U937 cells to VCAM-1 in the presence of sPLA2-IIA; format: cell-based; settings: increasing concentrations of sPLA2-IIA, 1 h, 37° C.
T1 construct: integrin α4β1, a major integrin in U937 cells; endogenous in cells; host or cells: U937
Method: as §1, §2

[3] = biological target: T2, soluble integrin αvβ3 (Homo sapiens, UniProt P05106+P06756); assay: Binding of soluble αvβ3 to immobilized sPLA2-IIA (ELISA-type assay); settings: immobilized protein, 20 μg/ml coating
T2 construct: Recombinant soluble αvβ3 was synthesized as previously described; made in house
Method: Binding of soluble αvβ3 to immobilized sPLA2-IIA sPLA2-IIA was immobilized to wells of 96 well microtiter plates and the remaining protein-binding sites were blocked by BSA as described (Mori, S. et al., J Biol Chem, 283:18066-18075 (2008)). Soluble recombinant αvβ3 at 5 μg/ml in Hepes-Tyrodes buffer supplemented with 1 mM MnCl2 was added to the well and incubated for 2 h. Bound αvβ3 was measured using anti-integrin β3 (mAb AV-10) followed by HRP-conjugated goat anti-mouse IgG and peroxidase substrates.

[4] = system: α4-K562 cells; assay: Proliferation of α4-K562 cells (MTS assay); format: cell-based, human; settings: serum-starved 48 h, stimulated 48 h
Method: Cells were serum-starved for 48 h and stimulated with sPLA2-IIA for 48 h. Cell proliferation was determined by MTS assays. Data is shown as means+/−SEM of triplicate experiments. α4- and αvβ3-K562 cells proliferated faster than mock-K562 cells. […] Serum-starved cells were stimulated with wt or mutant sPLA2-IIA (0.5 μg/ml) for 48 h. Data is shown as means+/−SEM of triplicate experiments. α4-K562 and αvβ3-K562 cells grew faster than mock K562 cells with wt and H47Q sPLA2-IIA (*P<0.05 by t-test).
(§3) Cell proliferation and MAP kinase activation K562 cells and human monocytic lymphoma U937 cells were maintained in RPM11640 medium supplemented with 10% FCS. Cells were plated in 96-well plates (1×10^4 cells/well), and serum-starved for 48 h at 37° C. in 5% CO2 atmosphere. Cells were then treated with or without sPLA2-IIA in medium without serum for 48 h. Cell proliferation was determined by MTS assays using the Aqueous Cell Proliferation Assay Kit (Promega). For MAP kinase activation assays, cells were serum starved in RPMI1640 medium supplemented with 0.4% FCS for 24 h, and stimulated with Wt and mutant sPLA2-IIA (0.5 μg/ml) for 10 min at 37° C. ERK1/2 activation was measured as described (Mori, S. et al., J Biol Chem, in press (2008)).

[5] = biological target: T3, integrin αvβ3 (Homo sapiens, UniProt P05106+P06756); assay: Surface plasmon resonance study of sPLA2-IIA binding to immobilized soluble integrin αvβ3; settings: SPR, soluble αvβ3 immobilized on sensor chip, 1 mM Mn2+; listed as human sPLA2-IIA
T3 construct: Recombinant soluble αvβ3 was synthesized as previously described; made in house
Method: Surface plasmon resonance study Recombinant soluble integrin αvβ3 was immobilized to Biacore Sensor chip CM5 (Biacore, Piscataway, N.J.) by the standard amine coupling method. Two-fold serial diluted sPLA2-IIA and its mutants R74E/R100E (ranging from 2 nM to 500 pM) and H47Q (ranging from 4 nM to 1 nM) in running buffer HBS-P buffer containing 1 mM of Mn^2+ were injected for 3 min at the flow rate of 50 μL/min. Then the sensor chip was washed with the running buffer alone at the same flow rate for another 5 min (the dissociation phase). Two consecutive one-minute injections of 0.5 M, pH 8 EDTA solution at the same flow rate were used to regenerate the chip for another cycle of injection. The resonance unit elicited from the reference flow cell was subtracted from the resonance unit elicited from the integrin flow cell to eliminate the non-specific protein-flow cell interaction and the bulk refractive index effect. The recorded binding curves were fitted with the “1:1 binding with drifting baseline model” by using the Biaevaluation Version 4.1.

[6] = system: ERK1/2; assay: MAP kinase (ERK1/2) activation in U937 cells, western blotting; format: cell-based, human; settings: 0.5 μg/ml, 10 min, 37° C.
Method: (§4) U937 cells (αvβ3+, α4β1+) were plated in wells of 96-well plates (10,000 cells/well), and serum-starved for 48 h. After treatment with wt or mutant sPLA2-IIA for 48 h, we measured cell proliferation by MTS assays. […] U937 cells were serum-starved for 24 h, and stimulated with wt and mutant sPLA2-IIA (0.5 μg/ml) for 10 min at 37° C. Cell lysates were analyzed by western blotting with anti-phospho ERK1/2 or anti-ERK1/2 antibodies. The blot is representative of three independent experiments.
as §3

[7] = system: fibronectin domains 8-11; assay: Adhesion of U937 cells to the cell-binding domain of fibronectin in the presence of sPLA2-IIA; format: cell-based, human; settings: increasing concentrations of sPLA2-IIA, 1 h, 37° C.
Method: as §1, §2

[8] = system: U937 human monocytic lymphoma cells; assay: Proliferation of U937 cells (MTS assay); format: cell-based; settings: serum-starved 48 h, treated 48 h
Method: as §4, §3

T2 sequence (P06756 31-992 limits assumed): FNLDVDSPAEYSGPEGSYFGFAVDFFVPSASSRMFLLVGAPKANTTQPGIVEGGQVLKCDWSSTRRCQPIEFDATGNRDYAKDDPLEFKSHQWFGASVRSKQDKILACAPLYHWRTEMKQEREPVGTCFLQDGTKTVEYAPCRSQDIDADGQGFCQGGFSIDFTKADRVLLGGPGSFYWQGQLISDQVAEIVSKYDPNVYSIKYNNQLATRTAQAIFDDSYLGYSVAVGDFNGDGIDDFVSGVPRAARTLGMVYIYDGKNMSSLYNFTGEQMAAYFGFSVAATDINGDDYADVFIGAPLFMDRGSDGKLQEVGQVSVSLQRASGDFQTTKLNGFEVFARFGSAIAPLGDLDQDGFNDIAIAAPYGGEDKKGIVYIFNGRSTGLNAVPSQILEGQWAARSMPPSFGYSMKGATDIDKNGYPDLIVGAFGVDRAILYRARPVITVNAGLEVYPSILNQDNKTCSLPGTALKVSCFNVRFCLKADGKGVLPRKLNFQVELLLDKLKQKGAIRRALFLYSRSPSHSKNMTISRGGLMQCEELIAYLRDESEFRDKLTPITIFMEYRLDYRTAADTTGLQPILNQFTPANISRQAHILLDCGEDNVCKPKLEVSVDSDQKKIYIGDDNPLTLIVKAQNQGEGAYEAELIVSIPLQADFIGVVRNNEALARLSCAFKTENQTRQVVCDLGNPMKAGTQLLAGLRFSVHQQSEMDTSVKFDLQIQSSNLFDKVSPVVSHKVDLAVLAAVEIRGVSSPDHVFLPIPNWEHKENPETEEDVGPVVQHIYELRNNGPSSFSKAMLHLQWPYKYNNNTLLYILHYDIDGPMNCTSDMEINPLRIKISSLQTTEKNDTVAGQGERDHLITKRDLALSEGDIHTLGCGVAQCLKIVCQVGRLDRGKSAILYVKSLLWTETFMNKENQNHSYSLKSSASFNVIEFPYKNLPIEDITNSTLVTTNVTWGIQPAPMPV
T2 sequence (P05106 27-718 limits assumed): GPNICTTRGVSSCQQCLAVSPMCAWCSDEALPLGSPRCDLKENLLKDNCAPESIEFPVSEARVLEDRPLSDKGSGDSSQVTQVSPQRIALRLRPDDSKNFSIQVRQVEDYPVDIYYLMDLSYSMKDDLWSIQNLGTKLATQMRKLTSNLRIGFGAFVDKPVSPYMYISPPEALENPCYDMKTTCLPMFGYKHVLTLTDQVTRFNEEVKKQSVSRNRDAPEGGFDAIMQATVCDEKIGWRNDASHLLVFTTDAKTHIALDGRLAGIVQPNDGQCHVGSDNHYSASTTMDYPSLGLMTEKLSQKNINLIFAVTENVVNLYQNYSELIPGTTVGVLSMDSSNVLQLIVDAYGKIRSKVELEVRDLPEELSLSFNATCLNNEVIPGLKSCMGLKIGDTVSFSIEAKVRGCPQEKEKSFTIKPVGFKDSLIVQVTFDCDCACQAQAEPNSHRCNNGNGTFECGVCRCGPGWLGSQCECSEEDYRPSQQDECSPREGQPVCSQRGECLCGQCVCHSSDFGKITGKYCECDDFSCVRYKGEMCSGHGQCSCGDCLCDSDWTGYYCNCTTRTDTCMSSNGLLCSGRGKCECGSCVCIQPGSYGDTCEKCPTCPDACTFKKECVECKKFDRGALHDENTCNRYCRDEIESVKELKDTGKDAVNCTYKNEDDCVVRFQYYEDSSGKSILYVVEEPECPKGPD
T3 sequence (P06756 31-992 limits assumed): as the sequence (P06756 31-992 limits assumed) above
T3 sequence (P05106 27-718 limits assumed): as the sequence (P05106 27-718 limits assumed) above
T1 sequence (P13612 34-1032): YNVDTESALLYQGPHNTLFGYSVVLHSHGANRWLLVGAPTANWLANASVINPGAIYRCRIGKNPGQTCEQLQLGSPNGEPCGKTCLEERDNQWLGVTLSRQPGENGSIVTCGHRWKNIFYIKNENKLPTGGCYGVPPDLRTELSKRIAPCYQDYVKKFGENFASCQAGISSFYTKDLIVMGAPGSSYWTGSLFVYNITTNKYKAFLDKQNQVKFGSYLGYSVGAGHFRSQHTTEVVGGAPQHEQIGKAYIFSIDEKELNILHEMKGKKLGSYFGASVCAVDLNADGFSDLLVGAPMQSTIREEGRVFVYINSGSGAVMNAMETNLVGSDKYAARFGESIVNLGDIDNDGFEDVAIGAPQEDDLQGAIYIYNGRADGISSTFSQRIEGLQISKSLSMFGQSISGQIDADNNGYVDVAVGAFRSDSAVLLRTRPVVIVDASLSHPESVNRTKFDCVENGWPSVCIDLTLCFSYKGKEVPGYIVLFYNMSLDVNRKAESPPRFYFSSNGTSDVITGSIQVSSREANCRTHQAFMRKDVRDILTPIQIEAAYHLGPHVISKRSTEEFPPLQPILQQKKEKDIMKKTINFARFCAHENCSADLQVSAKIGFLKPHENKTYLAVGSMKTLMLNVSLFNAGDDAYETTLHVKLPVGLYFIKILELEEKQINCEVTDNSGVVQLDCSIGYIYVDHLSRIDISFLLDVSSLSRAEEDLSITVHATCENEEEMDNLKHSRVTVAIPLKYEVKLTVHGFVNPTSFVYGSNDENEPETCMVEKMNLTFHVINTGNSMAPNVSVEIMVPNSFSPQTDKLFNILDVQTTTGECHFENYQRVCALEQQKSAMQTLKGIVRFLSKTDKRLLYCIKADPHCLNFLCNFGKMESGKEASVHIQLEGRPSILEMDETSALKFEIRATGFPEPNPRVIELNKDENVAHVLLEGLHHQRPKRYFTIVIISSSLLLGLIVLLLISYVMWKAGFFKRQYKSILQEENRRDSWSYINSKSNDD
T1 sequence (P05556 21-798): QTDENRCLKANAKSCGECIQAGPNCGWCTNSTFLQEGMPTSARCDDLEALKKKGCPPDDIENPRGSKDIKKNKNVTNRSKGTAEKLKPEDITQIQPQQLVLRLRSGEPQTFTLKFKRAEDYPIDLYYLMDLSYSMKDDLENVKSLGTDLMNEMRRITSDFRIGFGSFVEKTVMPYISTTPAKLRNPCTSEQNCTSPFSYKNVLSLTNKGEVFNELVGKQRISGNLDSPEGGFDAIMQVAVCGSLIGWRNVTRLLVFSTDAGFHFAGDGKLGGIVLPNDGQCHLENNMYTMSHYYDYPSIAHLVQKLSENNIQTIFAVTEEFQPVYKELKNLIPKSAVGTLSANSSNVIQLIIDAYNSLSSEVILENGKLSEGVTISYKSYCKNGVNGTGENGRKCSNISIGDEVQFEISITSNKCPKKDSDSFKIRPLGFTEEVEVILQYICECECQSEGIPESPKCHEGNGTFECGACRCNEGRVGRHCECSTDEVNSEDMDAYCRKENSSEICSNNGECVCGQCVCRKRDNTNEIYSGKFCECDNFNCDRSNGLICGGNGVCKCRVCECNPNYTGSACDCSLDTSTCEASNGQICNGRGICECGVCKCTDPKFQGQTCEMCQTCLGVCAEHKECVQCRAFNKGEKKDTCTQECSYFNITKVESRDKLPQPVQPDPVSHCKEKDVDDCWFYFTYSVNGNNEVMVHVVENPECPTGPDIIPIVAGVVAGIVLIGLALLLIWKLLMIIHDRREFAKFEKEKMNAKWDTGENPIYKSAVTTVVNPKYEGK

B1: wt sPLA2-IIA: Secretory phospholipase A2 group IIA, wild type, recombinant from bacteria BL21, refolded (protein)
chain: NLVNFHRMIKLTTGKEAALSYGFYGCHCGVGGRGSPKDATDRCCVTHDCCYKRLEKRGCGTKFLSYKFSNSGSRITCAKQDSCRSQLCECDKAAATCFARNKTTYNKKYQYYSNKHCRGSTPRC
modifications: left off: small tags and cut ends
With B1 the “binding of α4 mutants (Tyr-189 and Gly-190 to Ala) to sPLA2-IIA” value [1] was “blocked binding”, the “adhesion of U937 cells to VCAM-1” value [2] was “suppressed adhesion” and the “binding to soluble αvβ3” value [3] was “bound”. For the same molecule, the “proliferation of α4-K562 cells” value [4] was “induced proliferation”, the Kd [5] was 200 nM and the “ERK1/2 activation in U937 cells” value [6] was “induced”. The “cell adhesion to fibronectin domains 8-11” value [7] was “did not suppress cell adhesion” and the “proliferation of monocytic U937 cells” value [8] was “induced robust proliferation”.
